# Results reported in US20180238915A1 (published 2018).
# Read-outs that look alike come from different tables or passages of the source.
# T1: negatively modulated GCSF receptor (GCSFR(-)) (UniProt Q99062 25-621, modified by S-HyNic and conjugated through HyNic-4FB bonds to a 64-base DNA oligonucleotide (SEQ. ID 2, 5' C12 amino modifier); number and sites not stated)
# T1 chain: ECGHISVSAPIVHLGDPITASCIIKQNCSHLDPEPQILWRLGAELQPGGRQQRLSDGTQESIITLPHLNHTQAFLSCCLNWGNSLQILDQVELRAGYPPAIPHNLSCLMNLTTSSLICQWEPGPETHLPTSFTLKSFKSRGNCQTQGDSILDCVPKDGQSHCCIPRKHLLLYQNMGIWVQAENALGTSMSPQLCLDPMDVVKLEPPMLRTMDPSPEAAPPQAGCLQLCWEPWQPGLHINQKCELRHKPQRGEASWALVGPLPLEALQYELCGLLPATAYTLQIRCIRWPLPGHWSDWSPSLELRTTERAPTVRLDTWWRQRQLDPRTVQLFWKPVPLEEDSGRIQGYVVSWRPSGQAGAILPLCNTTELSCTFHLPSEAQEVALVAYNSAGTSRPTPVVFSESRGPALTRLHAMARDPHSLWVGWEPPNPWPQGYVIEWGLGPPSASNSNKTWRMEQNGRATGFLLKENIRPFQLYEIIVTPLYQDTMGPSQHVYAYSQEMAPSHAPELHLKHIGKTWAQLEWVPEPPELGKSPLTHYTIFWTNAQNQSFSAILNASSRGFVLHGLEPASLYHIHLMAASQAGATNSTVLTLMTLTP
# Key:
# [1] = biological target: T1, negatively modulated GCSF receptor …
# receptor [2] = test: BLI
# receptor [3] = biological target: receptor
Binder,koff [1] [s⁻¹],koff (receptor [2]) [s⁻¹],koff (receptor [3]) [s⁻¹]
"labeled G-CSF (Alexa Fluor 488) (ligand, Alexa Fluor 488 label (carboxylic acid succinimidyl ester); sites not stated) TPLGPASSLPQSFLLKCLEQVRKIQGDGAALQEKLCATYKLCHPEELVLLGHSLGIPWAPLSSCPSQALQLAGCLSQLHSGLFLYQGLLQALEGISPELGPTLDTLQLDVADFATTIWQQMEELGMAPALQPTQGAMPAFASAFQRRAGGVLVASHLQSFLEVSYRVLRHLAQP",5e-05,,
G-CSF (ligand) TPLGPASSLPQSFLLKCLEQVRKIQGDGAALQEKLCATYKLCHPEELVLLGHSLGIPWAPLSSCPSQALQLAGCLSQLHSGLFLYQGLLQALEGISPELGPTLDTLQLDVADFATTIWQQMEELGMAPALQPTQGAMPAFASAFQRRAGGVLVASHLQSFLEVSYRVLRHLAQP,,< 1e-06,3.8e-05
